Measurements taken from PMC11574045, “A cofactor-induced repressive type of transcription factor condensation can be induced by synthetic peptides to suppress tumorigenesis” (The EMBO Journal, 2024).

B1: SNW1 (protein, UniProt Q13573 2-536, looked up)
SNW domain-containing protein …: ALTSFLPAPTQLSQDQLEAEEKARSQRSRQTSLVSSRREPPPYGYRKGWIPRLLEDFGDGGAFPEIHVAQYPLDMGRKKKMSNALAIQVDSEGKIKYDAIARQGQSKDKVIYSKYTDLVPKEVMNADDPDLQRPDEEAIKEITEKTRVALEKSVSQKVAAAMPVRAADKLAPAQYIRYTPSQQGVAFNSGAKQRVIRMVEMQKDPMEPPRFKINKKIPRGPPSPPAPVMHSPSRKMTVKEQQEWKIPPCISNWKNAKGYTIPLDKRLAADGRGLQTVHINENFAKLAEALYIADRKAREAVEMRAQVERKMAQKEKEKHEEKLREMAQKARERRAGIKTHVEKEDGEARERDEIRHDRRKERQHDRNLSRAAPDKRSKLQRNENRDISEVIALGVPNPRTSNEVQYDQRLFNQSKGMDSGFAGGEDEIYNVYDQAWRGGKDMAQSIYRPSKNLDKDMYGDDLEARIKTNRFVPDKEFSGSDRRQRGREGPVQFEEDPFGLDKFLEEAKQHGGSKRPSDSSRPKEHEHEGKKRRKE
B2: SP100 (protein, UniProt P23497 2-879, looked up)
Nuclear autoantigen Sp-100: AGGGGDLSTRRLNECISPVANEMNHLPAHSHDLQRMFTEDQGVDDRLLYDIVFKHFKRNKVEISNAIKKTFPFLEGLRDRDLITNKMFEDSQDSCRNLVPVQRVVYNVLSELEKTFNLPVLEALFSDVNMQEYPDLIHIYKGFENVIHDKLPLQESEEEEREERSGLQLSLEQGTGENSFRSLTWPPSGSPSHAGTTPPENGLSEHPCETEQINAKRKDTTSDKDDSLGSQQTNEQCAQKAEPTESCEQIAVQVNNGDAGREMPCPLPCDEESPEAELHNHGIQINSCSVRLVDIKKEKPFSNSKVECQAQARTHHNQASDIIVISSEDSEGSTDVDEPLEVFISAPRSEPVINNDNPLESNDEKEGQEATCSRPQIVPEPMDFRKLSTFRESFKKRVIGQDHDFSESSEEEAPAEASSGALRSKHGEKAPMTSRSTSTWRIPSRKRRFSSSDFSDLSNGEELQETCSSSLRRGSGSQPQEPENKKCSCVMCFPKGVPRSQEARTESSQASDMMDTMDVENNSTLEKHSGKRRKKRRHRSKVNGLQRGRKKDRPRKHLTLNNKVQKKRWQQRGRKANTRPLKRRRKRGPRIPKDENINFKQSELPVTCGEVKGTLYKERFKQGTSKKCIQSEDKKWFTPREFEIEGDRGASKNWKLSIRCGGYTLKVLMENKFLPEPPSTRKKRILESHNNTLVDPCEEHKKKNPDASVKFSEFLKKCSETWKTIFAKEKGKFEDMAKADKAHYEREMKTYIPPKGEKKKKFKDPNAPKRPPLAFFLFCSEYRPKIKGEHPGLSIDDVVKKLAGMWNNTAAADKQFYEKKAAKLKEKYKKDIAAYRAKGKPNSAKKRVVKAEKSKKKKEEEEDEEDEQEEENEEDDDK
B3: SSX5 (protein, UniProt O60225 1-188, looked up)
Protein SSX5: MNGDDAFVRRPRVGSQIPEKMQKAFDDIAKYFSEKEWEKMKASEKIIYVYMKRKYEAMTKLGFKATLPPFMRNKRVADFQGNDFDNDPNRGNQVEHPQMTFGRLQGIFPKITPEKPAEEGNDSKGVPEASGPQNNGKQLRPSGKLNTSEKVNKTSGPKRGKHAWTHRVRERKQLVIYEEISDPQEDDE
B4: SRY (protein, UniProt Q05738 1-392, looked up)
Sex-determining region Y …: MEGHVKRPMNAFMVWSRGERHKLAQQNPSMQNTEISKQLGCRWKSLTEAEKRPFFQEAQRLKILHREKYPNYKYQPHRRAKVSQRSGILQPAVASTKLYNLLQWDRNPHAITYRQDWSRAAHLYSKNQQSFYWQPVDIPTGHLQQQQQQQQQQQFHNHHQQQQQFYDHHQQQQQQQQQQQQFHDHHQQKQQFHDHHQQQQQFHDHHHHHQEQQFHDHHQQQQQFHDHQQQQQQQQQQQFHDHHQQKQQFHDHHHHQQQQQFHDHQQQQQQFHDHQQQQHQFHDHPQQKQQFHDHPQQQQQFHDHHHQQQQKQQFHDHHQQKQQFHDHHQQKQQFHDHHQQQQQFHDHHQQQQQQQQQQQQQFHDQQLTYLLTADITGWKGIKHCTGPDPEPF
B5: SP110 (protein, UniProt Q9HB58 1-689, looked up)
Sp110 nuclear body protein: MFTMTRAMEEALFQHFMHQKLGIAYAIHKPFPFFEGLLDNSIITKRMYMESLEACRNLIPVSRVVHNILTQLERTFNLSLLVTLFSQINLREYPNLVTIYRSFKRVGASYEWQSRDTPILLEAPTGLAEGSSLHTPLALPPPQPPQPSCSPCAPRVSEPGTSSQQSDEILSESPSPSDPVLPLPALIQEGRSTSVTNDKLTSKMNAEEDSEEMPSLLTSTVQVASDNLIPQIRDKEDPQEMPHSPLGSMPEIRDNSPEPNDPEEPQEVSSTPSDKKGKKRKRCIWSTPKRRHKKKSLPGGTASSRHGIQKKLKRVDQVPQKKDDSTCNSTVETRAQKARTECARKSRSEEIIDGTSEMNEGKRSQKTPSTPRRVTQGAASPGHGIQEKLQVVDKVTQRKDDSTWNSEVMMRVQKARTKCARKSRLKEKKKEKDICSSSKRRFQKNIHRRGKPKSDTVDFHCSKLPVTCGEAKGILYKKKMKHGSSVKCIRNEDGTWLTPNEFEVEGKGRNAKNWKRNIRCEGMTLGELLKRKNSDECEVCCQGGQLLCCGTCPRVFHEDCHIPPVEAKRMLWSCTFCRMKRSSGSQQCHHVSKTLERQMQPQDQLIRDYGEPFQEAMWLDLVKERLITEMYTVAWFVRDMRLMFRNHKTFYKASDFGQVGLDLEAEFEKDLKDVLGFHEANDGGFWTLP
B6: SP6 (protein, UniProt Q3SY56 1-376, looked up)
Transcription factor Sp6: MLTAVCGSLGSQHTEAPHASPPRLDLQPLQTYQGHTSPEAGDYPSPLQPGELQSLPLGPEVDFSQGYELPGASSRVTCEDLESDSPLAPGPFSKLLQPDMSHHYESWFRPTHPGAEDGSWWDLHPGTSWMDLPHTQGALTSPGHPGALQAGLGGYVGDHQLCAPPPHPHAHHLLPAAGGQHLLGPPDGAKALEVAAPESQGLDSSLDGAARPKGSRRSVPRSSGQTVCRCPNCLEAERLGAPCGPDGGKKKHLHNCHIPGCGKAYAKTSHLKAHLRWHSGDRPFVCNWLFCGKRFTRSDELQRHLQTHTGTKKFPCAVCSRVFMRSDHLAKHMKTHEGAKEEAAGAASGEGKAGGAVEPPGGKGKREAEGSVAPSN
B7: SSX3 (protein, UniProt Q99909 1-188, looked up)
Protein SSX3: MNGDDTFARRPTVGAQIPEKIQKAFDDIAKYFSKEEWEKMKVSEKIVYVYMKRKYEAMTKLGFKAILPSFMRNKRVTDFQGNDFDNDPNRGNQVQRPQMTFGRLQGIFPKIMPKKPAEEGNVSKEVPEASGPQNDGKQLCPPGKPTTSEKINMISGPKRGEHAWTHRLRERKQLVIYEEISDPEEDDE
B8: BCL6B (protein, UniProt Q8N143 1-479, looked up)
B-cell CLL/lymphoma 6 member …: MGSPAAPEGALGYVREFTRHSSDVLGNLNELRLRGILTDVTLLVGGQPLRAHKAVLIACSGFFYSIFRGRAGVGVDVLSLPGGPEARGFAPLLDFMYTSRLRLSPATAPAVLAAATYLQMEHVVQACHRFIQASYEPLGISLRPLEAEPPTPPTAPPPGSPRRSEGHPDPPTESRSCSQGPPSPASPDPKACNWKKYKYIVLNSQASQAGSLVGERSSGQPCPQARLPSGDEASSSSSSSSSSSEEGPIPGPQSRLSPTAATVQFKCGAPASTPYLLTSQAQDTSGSPSERARPLPGSEFFSCQNCEAVAGCSSGLDSLVPGDEDKPYKCQLCRSSFRYKGNLASHRTVHTGEKPYHCSICGARFNRPANLKTHSRIHSGEKPYKCETCGSRFVQVAHLRAHVLIHTGEKPYPCPTCGTRFRHLQTLKSHVRIHTGEKPYHCDPCGLHFRHKSQLRLHLRQKHGAATNTKVHYHILGGP
B9: SOX7 (protein, UniProt Q9BT81 1-388, looked up)
Transcription factor SOX-7: MASLLGAYPWPEGLECPALDAELSDGQSPPAVPRPPGDKGSESRIRRPMNAFMVWAKDERKRLAVQNPDLHNAELSKMLGKSWKALTLSQKRPYVDEAERLRLQHMQDYPNYKYRPRRKKQAKRLCKRVDPGFLLSSLSRDQNALPEKRSGSRGALGEKEDRGEYSPGTALPSLRGCYHEGPAGGGGGGTPSSVDTYPYGLPTPPEMSPLDVLEPEQTFFSSPCQEEHGHPRRIPHLPGHPYSPEYAPSPLHCSHPLGSLALGQSPGVSMMSPVPGCPPSPAYYSPATYHPLHSNLQAHLGQLSPPPEHPGFDALDQLSQVELLGDMDRNEFDQYLNTPGHPDSATGAMALSGHVPVSQVTPTGPTETSLISVLADATATYYNSYSVS
B10: BHLHA9 (protein, UniProt Q7RTU4 1-235, looked up)
Class A basic …: MLRGAPGLGLTARKGAEDSAEDLGGPCPEPGGDSGVLGANGASCSRGEAEEPAGRRRARPVRSKARRMAANVRERKRILDYNEAFNALRRALRHDLGGKRLSKIATLRRAIHRIAALSLVLRASPAPRGPCGHLECHGPAARGDTGDTGASPPPPAGPSLARPDAARPSVPSAPRCASCPPHAPLARPSAVAEGPGLAQASGGSWRRCPGASSAGPPPWPRGYLRSAPGMGHPRS
B11: SOX10 (protein, UniProt P56693 1-466, looked up)
Transcription factor SOX-10: MAEEQDLSEVELSPVGSEEPRCLSPGSAPSLGPDGGGGGSGLRASPGPGELGKVKKEQQDGEADDDKFPVCIREAVSQVLSGYDWTLVPMPVRVNGASKSKPHVKRPMNAFMVWAQAARRKLADQYPHLHNAELSKTLGKLWRLLNESDKRPFIEEAERLRMQHKKDHPDYKYQPRRRKNGKAAQGEAECPGGEAEQGGTAAIQAHYKSAHLDHRHPGEGSPMSDGNPEHPSGQSHGPPTPPTTPKTELQSGKADPKRDGRSMGEGGKPHIDFGNVDIGEISHEVMSNMETFDVAELDQYLPPNGHPGHVSSYSAAGYGLGSALAVASGHSAWISKPPGVALPTVSPPGVDAKAQVKTETAGPQGPPHYTDQPSTSQIAYTSLSLPHYGSAFPSISRPQFDYSDHQPSGPYYGHSGQASGLYSAFSYMGPSQRPLYTAISDPSPSGPQSHSPTHWEQPVYTTLSRP
B12: SPZ1 (protein, UniProt Q9BXG8 1-430, looked up)
Spermatogenic leucine zipper …: MASSAKSAEMPTISKTVNPTPDPHQEYLDPRITIALFEIGSHSPSSWGSLPFLKNSSHQVTEQQTAQKFNNLLKEIKDILKNMAGFEEKITEAKELFEETNITEDVSAHKENIRGLDKINEMLSTNLPVSLAPEKEDNEKKQEMILETNITEDVSAHKENIRGLDKINEMLSTNLPVSLAPEKEDNEKKQQMIMENQNSENTAQVFARDLVNRLEEKKVLNETQQSQEKAKNRLNVQEETMKIRNNMEQLLQEAEHWSKQHTELSKLIKSYQKSQKDISETLGNNGVGFQTQPNNEVSAKHELEEQVKKLSHDTYSLQLMAALLENECQILQQRVEILKELHHQKQGTLQEKPIQINYKQDKKNQKPSEAKKVEMYKQNKQAMKGTFWKKDRSCRSLDVCLNKKACNTQFNIHVARKALRGKMRSASSLR

Each molecule was assayed on HEK293FT cells transfected with TF library (assay: Screening of TF condensates based on fluorescent puncta). Conditions: Figure 1B numerical data; TF library screen, one value per transcriptional factor.
Assay type: cell-based
Summary of the method: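 HEK293FT cells were reverse-transfected with Flag- or GAL4-tagged TF plasmids (1.6 μg/ml, PEI). After 60 h, cells were cultured 12 h with or without glucose, then fixed and immunostained with anti-Flag or anti-GAL4 and Alexa 488 secondaries. Fluorescent puncta were imaged over fifty random fields per well by high-content imaging.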
With B1 the “Z score of condensed fraction” value was -0.7186.
For B2, the “Z score of condensed fraction” value was -0.9758.
In the case of B3, the “Z score of condensed fraction” value is reported as 0.09353.
With B4 the “Z score of condensed fraction” value was -0.331.
With B5 the “Z score of condensed fraction” value was -0.422.
B6 was tested, and the “Z score of condensed fraction” value was 2.974.
B7 was tested, and the “Z score of condensed fraction” value was 0.2674.
With B8 the “Z score of condensed fraction” value was -0.2442.
With B9 the “Z score of condensed fraction” value was -0.1184.
With B10 the “Z score of condensed fraction” value was -1.033.
B11 was tested, and the “Z score of condensed fraction” value was -0.1457.
With B12 the “Z score of condensed fraction” value was 0.06851.
